# Experimental data reported in paper PMC6927645, “Self-association of human beta-galactocerebrosidase: Dependence on pH, salt, and surfactant” (PLoS ONE, 2019).
# Target: the molecule itself
# Assay: AUC; sedimentation velocity dilution series, 40,000 rpm, 20°C, Rayleigh optics; 5 mM sodium phosphate pH 6.0 with 50, 150 or 500 mM NaCl; Wide Distribution Analysis and fits in SedAnal; self-association of monomer to higher oligomers
protein,measurement,value
"recombinant human galactocerebrosidase (hGALC) (enzyme, UniProt P54803 43-685, looked up, heavily glycosylated; glycan structures not determined, human galactocerebrosidase (GALC); The protein was recovered from the culture broth, and the computed 73 kDa protein moiety fits the precursor without its signal peptide (surmised); No tag is mentioned; also called human beta-galactocerebrosidase; galactocerebrosidase enzyme; source: virus filtration; ultrafiltration/diafiltration)) YVLDDSDGLGREFDGIGAVSGGGATSRLLVNYPEPYRSQILDYLFKPNFGASLHILKVEIGGDGQTTDGTEPSHMHYALDENYFRGYEWWLMKEAKKRNPNITLIGLPWSFPGWLGKGFDWPYVNLQLTAYYVVTWIVGAKRYHDLDIDYIGIWNERSYNANYIKILRKMLNYQGLQRVKIIASDNLWESISASMLLDAELFKVVDVIGAHYPGTHSAKDAKLTGKKLWSSEDFSTLNSDMGAGCWGRILNQNYINGYMTSTIAWNLVASYYEQLPYGRCGLMTAQEPWSGHYVVESPVWVSAHTTQFTQPGWYYLKTVGHLEKGGSYVALTDGLGNLTIIIETMSHKHSKCIRPFLPYFNVSQQFATFVLKGSFSEIPELQVWYTKLGKTSERFLFKQLDSLWLLDSDGSFTLSLHEDELFTLTTLTTGRKGSYPLPPKSQPFPSTYKDDFNVDYPFFSEAPNFADQTGVFEYFTNIEDPGEHHFTLRQVLNQRPITWAADASNTISIIGDYNWTNLTIKCDVYIETPDTGGVFIAGRVNKGGILIRSARGIFFWIFANGSYRVTGDLAGWIIYALGRVEVTAKKWYTLTLTIKGHFTSGMLNDKSLWTDIPVNFPKNGWAAIGTHSFEFAQFDNFLVEATR",stoichiometry N,≥ 4
